Results taken from publication PMC7472703, “DNA methylation suppresses chitin degradation and promotes the wing development by inhibiting Bmara-mediated chitinase expression in the silkworm, Bombyx mori”.

T1: Bmara (homeobox protein araucan) (Bombyx mori, UniProt A0A8R1WJM2 5-477)
T1 sequence: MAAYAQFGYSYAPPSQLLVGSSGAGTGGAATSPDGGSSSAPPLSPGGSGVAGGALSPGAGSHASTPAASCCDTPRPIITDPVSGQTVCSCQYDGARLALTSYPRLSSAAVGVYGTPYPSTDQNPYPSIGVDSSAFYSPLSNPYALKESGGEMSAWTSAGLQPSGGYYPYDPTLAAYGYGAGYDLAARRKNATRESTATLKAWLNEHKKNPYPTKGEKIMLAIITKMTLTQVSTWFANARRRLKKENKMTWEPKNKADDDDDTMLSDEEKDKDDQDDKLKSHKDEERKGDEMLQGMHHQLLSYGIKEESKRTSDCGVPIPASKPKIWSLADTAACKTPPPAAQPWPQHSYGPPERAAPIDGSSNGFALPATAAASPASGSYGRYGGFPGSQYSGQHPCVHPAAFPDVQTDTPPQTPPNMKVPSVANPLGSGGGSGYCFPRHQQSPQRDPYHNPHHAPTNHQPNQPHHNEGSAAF


Biological target: T1, Bmara (homeobox protein araucan)
Test: EMSA; 5 mM MgCl2, 4 mM EDTA; EMSA: 50 mM KCl, 5 mM MgCl2, 4 mM EDTA, 2.5% glycerol, 0.05% NP-40, 50 ng poly(dI-dC), 20 fmol probe, 20 uL, 20 min RT. Pull-down: 10 mM HEPES pH 7.6, 100 mM K
Conditions: protein: recombinant; tags: 6xHis (pET-28a/32a); label: 5' biotin; blunt

| Binder | binding result |
| --- | --- |
| Wt CRE probe (BmCHT10 promoter -250 to -225; legend -250 to -221) (dsDNA) DNA 1: TTCAGTCCACGGCTGTCTTTCAACACGGA DNA 2: TCCGTGTTGAAAGACAGCCGTGGACTGAA | binds |
| Mut-CRE probe (dsDNA) DNA 1: TTCAGTCCACGGCGTGACTTTCGACCGGA DNA 2: TCCGGTCGAAAGTCACGCCGTGGACTGAA | no binding |
